Data as given in article PMC2869534.

Test system: SNF2h (human)
Test: Cy3 fluorescence intensity titration

Row | Substance | binding signal (fold lower K1/2 than apo) | K half [nM]
1 | 0-601-40 nucleosome, Cy3 | 3 | 
2 | 0-601-78 nucleosome, Cy3 |  | 353
